Test results: patent US20240317862A1 (AMPSOURCE BIOPHARMA SHANGHAI, published 2024)

T1: human B7-H3 on tumor cells (Hs578T, MDA-MB-436, MDA-MB-468, MDA-MB-231, MDA-MB-453, HT-29) (human, UniProt Q5ZPR3 29-534)
T1 construct: whole, on cells; also called target cells
T1 sequence (looked up): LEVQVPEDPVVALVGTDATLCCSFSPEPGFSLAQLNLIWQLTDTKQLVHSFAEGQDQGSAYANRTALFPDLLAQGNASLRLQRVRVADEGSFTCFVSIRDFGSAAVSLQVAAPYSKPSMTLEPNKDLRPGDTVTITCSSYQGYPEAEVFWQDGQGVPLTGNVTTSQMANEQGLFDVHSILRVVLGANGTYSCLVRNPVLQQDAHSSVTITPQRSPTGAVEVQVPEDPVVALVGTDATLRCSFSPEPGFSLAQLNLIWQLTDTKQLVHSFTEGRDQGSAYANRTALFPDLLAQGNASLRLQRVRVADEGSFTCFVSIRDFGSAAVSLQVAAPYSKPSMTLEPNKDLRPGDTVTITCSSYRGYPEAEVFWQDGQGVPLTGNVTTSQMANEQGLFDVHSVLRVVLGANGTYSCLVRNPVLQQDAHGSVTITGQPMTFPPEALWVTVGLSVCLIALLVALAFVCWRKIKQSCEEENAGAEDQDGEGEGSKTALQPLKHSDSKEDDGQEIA

T2: human B7-H3 (purchased from Acro Biosystems) (human, UniProt Q5ZPR3 29-461, limits assumed)
T2 construct: Bought protein coated on ELISA plates; also called human B7-H3 antigen; human B7-H3 molecules
T2 sequence (looked up): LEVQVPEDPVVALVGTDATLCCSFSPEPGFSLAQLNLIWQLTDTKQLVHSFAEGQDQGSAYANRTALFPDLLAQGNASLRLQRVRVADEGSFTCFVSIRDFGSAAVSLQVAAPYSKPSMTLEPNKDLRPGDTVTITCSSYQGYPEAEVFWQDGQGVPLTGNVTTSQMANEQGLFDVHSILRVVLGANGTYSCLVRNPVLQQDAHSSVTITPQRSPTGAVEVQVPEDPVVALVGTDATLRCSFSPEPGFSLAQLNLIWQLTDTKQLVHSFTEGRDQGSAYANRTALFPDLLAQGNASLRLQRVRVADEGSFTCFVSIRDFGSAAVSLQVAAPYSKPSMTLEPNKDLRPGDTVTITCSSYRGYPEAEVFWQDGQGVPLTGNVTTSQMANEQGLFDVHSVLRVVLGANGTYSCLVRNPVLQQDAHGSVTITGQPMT

T3: His-labeled human B7-H3 (human, UniProt Q5ZPR3 29-461)
T3 construct: Coupled to a Ni-NTA sensor in BLI; also called antigen B7-H3; not shown: His label
T3 sequence (looked up): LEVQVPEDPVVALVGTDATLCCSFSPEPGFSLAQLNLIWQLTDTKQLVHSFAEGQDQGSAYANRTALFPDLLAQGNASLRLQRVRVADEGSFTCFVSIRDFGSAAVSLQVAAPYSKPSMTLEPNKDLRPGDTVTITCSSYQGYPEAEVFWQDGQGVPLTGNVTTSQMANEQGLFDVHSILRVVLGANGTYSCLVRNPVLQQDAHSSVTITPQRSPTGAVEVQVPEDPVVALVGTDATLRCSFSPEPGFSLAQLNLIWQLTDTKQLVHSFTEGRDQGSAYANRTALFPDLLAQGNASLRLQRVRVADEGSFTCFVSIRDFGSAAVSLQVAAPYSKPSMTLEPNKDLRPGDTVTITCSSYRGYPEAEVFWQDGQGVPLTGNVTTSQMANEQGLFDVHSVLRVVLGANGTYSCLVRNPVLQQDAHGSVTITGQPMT

T4: murine B7-H3 protein (Sino Biological Inc. Beijing) (mouse, UniProt Q8VE98 29-244, limits assumed)
T4 construct: Bought protein coated on ELISA plates; also called mouse B7-H3 antigen; murine B7-H3 antigen
T4 sequence (looked up): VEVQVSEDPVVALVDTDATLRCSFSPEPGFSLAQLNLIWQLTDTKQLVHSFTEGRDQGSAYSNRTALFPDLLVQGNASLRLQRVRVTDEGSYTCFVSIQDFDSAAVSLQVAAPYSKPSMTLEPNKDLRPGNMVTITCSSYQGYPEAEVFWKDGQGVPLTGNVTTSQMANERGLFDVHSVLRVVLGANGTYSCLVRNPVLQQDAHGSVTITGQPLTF


Columns and labels:
[1] = molecular target: T1, human B7-H3 on tumor cells (Hs578T, …); assay: flow cytometry, MFI titration on HT-29 cells
Protocol: (§1) The collected cells were resuspended with 1% PBSB to adjust the cell density to 2×10⁶ cells/ml, placed in 96-well plates 100 μL (2×10⁵ cells) per well, and blocked for 0.5 hours at 4° C. The blocked cells were centrifuged to discard the supernatant, and a series of diluted antibodies mAb152 and mAb272 were added to the cells. The cells were incubated for 1 hour at 4° C., then centrifuged to discard the supernatant, and washed three times with a PBS solution with 1% BSA (PBSB). Diluted AF64-labeled goat anti-human IgG antibodies (Jackson, Cat. No. 109-605-088) were added to the cells, and the cells were incubated for 1 hour at 4° C. in the dark. The obtained cells were centrifuged to discard the supernatant and then washed twice with 1% PBSB, and cells in each well were resuspended with 100 μL of 1% paraformaldehyde (PF). The signal intensity was detected by flow cytometry. The analysis was performed with the mean fluorescence intensity (MFI) as the Y-axis and the antibody concentration as the X-axis through the software GraphPad Prism 7 to calculate the Kd values for the binding of the murine monoclonal antibodies to the tumor cells.

[2] = molecular target: T1, human B7-H3 on tumor cells (Hs578T, …); assay: flow cytometry, MFI titration on Hs578T cells
Protocol: as §1

[3] = molecular target: T1, human B7-H3 on tumor cells (Hs578T, …); assay: flow cytometry, MFI titration on MDA-MB-231 cells
Protocol: as §1

[4] = molecular target: T1, human B7-H3 on tumor cells (Hs578T, …); assay: flow cytometry, MFI titration on MDA-MB-436 cells
Protocol: as §1

[5] = molecular target: T1, human B7-H3 on tumor cells (Hs578T, …); assay: flow cytometry, MFI titration on MDA-MB-453 cells
Protocol: as §1

[6] = molecular target: T1, human B7-H3 on tumor cells (Hs578T, …); assay: flow cytometry, MFI titration on MDA-MB-468 cells
Protocol: as §1

[7] = molecular target: T2, human B7-H3 (purchased from Acro …); assay: ELISA, plate coated with 0.1 µg/mL human B7-H3, HRP goat anti-mouse IgG detection
Protocol: Plates were coated with 100 μL of 0.1 μg/mL human B7-H3 (purchased from Acro Biosystems) at room temperature overnight. The coating solution was discarded, and the wells were blocked for 0.5 hours with skimmed milk dissolved in phosphate buffered saline (PBS) and washed with PBS containing 0.05% Tween-20 (PBST). The murine antibodies mAb152 and mAb272 against human B7-H3 to be tested were then diluted to appropriate concentrations, added to plates, 50 μL per well, and incubated at room temperature for 1 hour. The wells were washed with 0.05% PBST, and then 50 μL of HRP-labeled goat anti-mouse IgG polyclonal antibodies (purchased from Jackson Laboratory) was added to each well as the detection antibody and incubated at 37° C. for 1 hour. The cells were washed three times with 0.05% PBST, TMB was added to the plates, 100 μL/well, and color development was performed at room temperature for 5 min. 0.2 M H₂SO₄ was added, 50 μL/well, to stop the color development reaction. The light absorbance values at 450 nm/620 nm were measured by a microplate reader. A graph was drawn by software GraphPad Prism 7 with the absorbance as the Y-axis and the antibody concentration as the X-axis.

His-labeled human B7-H3 = molecular target: T3, His-labeled human B7-H3; assay: BLI (ForteBio Octet), His-labeled human B7-H3 on Ni-NTA sensor, antibody 3.125-100 nM
Protocol: The binding affinity constants of the purified murine monoclonal antibodies to the antigen B7-H3 were determined by bio-layer interferometry (BLI) with a ForteBio Octet RED&QK system from PALL Corporation.

[8] = molecular target: T4, murine B7-H3 protein (Sino Biological …); assay: ELISA, plate coated with 0.1 µg/mL murine B7-H3, HRP-labeled antibody, OD 450/620 nm
Protocol: (§2) The cross-reactivity of the anti-B7-H3 murine monoclonal antibodies with mouse and Cynomolgus monkey B7-H3 antigens was detected in this example.
(§3) Specific experimental procedures are as follows: The plates were coated with 100 μL of 0.1 μg/mL Cynomolgus monkey B7-H3 and murine B7-H3 proteins (Sino Biological Inc. Beijing) at room temperature overnight. The coating solution was discarded, and the wells were blocked for 0.5 hours with skimmed milk dissolved in phosphate buffered saline (PBS) and washed with PBS containing 0.05% Tween-20. 50 μL of purified HRP-labeled B7-H3 monoclonal antibodies was added to each well and incubated at room temperature for 1 hour. The cells were washed five times with PBS containing 0.05% Tween-20, 100 μL of TMB was added to each well, and color development was performed at room temperature for 5 min. 50 μL of 2N H₂SO₄ was added to each well to stop the color development reaction. The values at 450 nm were measured by a microplate reader. The results were imported into Graph Prism to calculate EC₅₀ values.

[9] = molecular target: T5, Cynomolgus monkey B7-H3 protein (Sino Biological Inc. Beijing) (Cynomolgus monkey); assay: ELISA, plate coated with 0.1 µg/mL Cynomolgus monkey B7-H3, HRP-labeled antibody, OD 450/620 nm
T5 construct: Bought protein coated on ELISA plates; also called monkey B7-H3 antigen
Protocol: as §2, §3

Row | Binder | Kd [1] | Kd [2] | Kd [3] | Kd [4] | Kd [5] | Kd [6] | EC50 [7] | Kd (His-labeled human B7-H3) | koff (His-labeled human B7-H3) | kon (His-labeled human B7-H3) | binding result [8] | EC50 (read off the curve) [9]
1 | murine monoclonal antibody mAb152 (antibody, V domains shown) VH: QVQLQQPGAELVRPGASVKLSCKASGYTFTAYWMNWVKQRPDQGLEWIGRIDPYDSETRYNQNFRDKARLTVDKSSSTAYMQLSSLTSEDSAVFYCARGVRIFDYWGQGTTLTVSS VL: DIQMTQSPASLAASVGETVTITCRTSENIDYTLAWYQQKPGKSPQLLIYNANTLEDGVPSRFSGSGSGTHFSLKINSMQPEDTATYFCKQAYDVPRTFGGGTKLEIK | 1.25 nM | 0.835 nM | 0.227 nM | 5.05 nM | 0.273 nM | 2.6 nM | 6.69 ng/mL | 0.015 nM | 3.09e-06 s⁻¹ | 207000 M⁻¹ s⁻¹ | no binding (tested: 10 µg/mL) | ~6 ng/mL
2 | murine monoclonal antibody mAb272 (antibody, V domains shown) VH: QVQLQQPGAELVRPGASVKLSCKASGYTFTAYWMNWVKQRPDQGLEWIGRIDPYDSETRYNQNFRDKARLTVDKSSSTAYMQLSSLTSEDSAVFYCARGVRIFDYWGQGTTLTVSS VL: DIQMTQSPASLAASVGETVTITCRTSENIDYTLAWYQQKPGKSPQLLIYNANTLEDGVPSRFSGSGSGTLFSLKINNMQPEDTATYFCKQAYDVPRTFGGGTKLEIK | 2.35 nM | 1.2 nM | 0.204 nM | 5.11 nM | 0.239 nM | 3.24 nM | 6.16 ng/mL | < 0.001 nM | < 1e-07 s⁻¹ | 220000 M⁻¹ s⁻¹ | no binding (tested: 10 µg/mL) | ~5 ng/mL
